Patent publication US20090155239A1, “Novel Protease, Microorganism Producing the Same, and Application Thereof” (SODX CO., LTD., priority 2005, published 2009)
Read-outs that look alike come from different tables or passages of the source. Where a SMILES comes first, the peptide text is derived from it. [ ]: non-standard residue; d: D form. The star is where a group is joined. Sta = CC(C)C[C@H](N)[C@@H](O)CC(=O)O; Isovaleryl = CC(C)CC(=O)*

Legend:
[1] = tested on: protease of the present invention; format: biochemical, Fusarium sp. strain BLB; conditions: for Relative Activity (%): pH 5
[2] = substrate Gle-Phe-pNA; H-D-Ile-Pro-Arg-pNA taken as 100
[3] = substrate H-D-Val-Leu-Lys-pNA; H-D-Ile-Pro-Arg-pNA taken as 100
[4] = tested on: fibrin; assay: Fibrin plate method; format: biochemical, bovine
[5] = tested on: Hammarsten casein; assay: Casein method; format: biochemical; conditions: final purified product of Example 2
Description: A 0.5 ml quantity of sample (protease solution) is added to 1.5 ml of Hammarsten casein solution, prepared using 100 mM boric acid buffer (pH 10) so as to have a final concentration of 1 wt. %, and a reaction is carried out at 37° C. for 10 minutes. The reaction is terminated by adding 2 ml of 0.44 M trichloroacetic acid solution. After allowing the reaction mixture to stand for 20 minutes, the precipitate is filtered off. Five milliliters of 0.44 M aqueous sodium carbonate solution and 1 ml of phenol reagent (containing, per 100 ml, 9.1 g of sodium tungstate dihydrate, 2.3 g of sodium molybdate dihydrate, 4.5 ml of phosphoric acid, 9.1 ml of hydrochloric acid, and 13.6 g of lithium sulfate) are added in that order. After allowing the resulting mixture to stand for 20 minutes, the absorbance at an absorption wavelength of 660 nm is measured. In the above measurement, the amount of enzyme that liberates, per minute, an acid-soluble protein hydrolysate corresponding to 1 μg of tyrosine is defined as 1 unit.

[6] = substrate H-D-Ile-Pro-Arg-pNA, taken as 100
[7] = tested on: mice; assay: Acute toxicity test on mice
[8] = substrate Suc-Ala-Ala-Pro-Phe-pNA; H-D-Ile-Pro-Arg-pNA taken as 100
[9] = Synthetic substrate method, substrate specificity; format: biochemical; conditions: substrate Bz-L-Arg-pNA
[10] = substrate Suc-Ala-Ala-Pro-Leu-pNA; H-D-Ile-Pro-Arg-pNA taken as 100

c1ccc(-c2ccccn2)nc1 [2,2′-Bipyridyl]
Relative Activity (%) [1]: 97%

CC(C)C[C@H](NC(=O)[C@H]1O[C@@H]1C(=O)O)C(=O)NCCCCN=C(N)N [E-64, t-epoxysuccinyl-L-leucylamide(4-guanidino)butane]
Relative Activity (%) [1]: 97%

O=C(O)CN(CCN(CC(=O)O)CC(=O)O)CC(=O)O [EDTA, ethylenediaminetetraacetic acid]
Relative Activity (%) [1]: 100%

O=S(=O)(F)Cc1ccccc1 [PMSF, phenylmethylsulfonyl fluoride]
inhibition of the protease (in words) [1]: inhibited | Relative Activity (%) [1]: 59%

CC(C)CC(=O)N[C@H](C(=O)N[C@H](C(=O)N[C@@H](CC(C)C)[C@@H](O)CC(=O)N[C@@H](C)C(=O)N[C@@H](CC(C)C)[C@@H](O)CC(=O)O)C(C)C)C(C)C [Pepstatin] (Isovaleryl-VV[Sta]A[Sta]-OH)
Relative Activity (%) [1]: 100%

c1cnc2c(c1)ccc1cccnc12 [Phenanthroline]
Relative Activity (%) [1]: 100%

NCCCCCC(=O)O [ε-ACA, ε-aminocaproic acid]
Relative Activity (%) [1]: 100%

Chimostatin
Relative Activity (%) [1]: 100%

Streptomyces pepsin inhibitor [SPI]
Relative Activity (%) [1]: 100%

B1: soybean trypsin inhibitor (protein)
chain: DFVLDNEGNPLENGGTYYILSDITAFGGIRAAPTGNERCPLTVVQSRNELDKGIGTIISSPYRIRFIAEGHPLSLKFDSFAVIMLCVGIPTEWSVVEDLPEGPAVKIGENKDAMDGWFRLERVSDDEFNNYKLVFCPQQAEDDKCGDIGISIDHDDGTRRLVVSKNKPLVVQFQKLDKESL
inhibition of the protease (in words) [1]: not inhibited | Relative Activity (%) [1]: 100%

B2: protease of the present invention: novel trypsin-type serine protease from Fusarium sp. strain BLB, about 27000 on SDS-PAGE, amino acid sequence SEQ ID NO: 1 (protein, listed as Fusarium sp.)
chain: MVKFATIVALVAPLVAARPQDRPLIVGGTAASAGDFPFIVSISYQGGPWCGGTLLNANTVLTAAHCTSGRAASAFQVRAGSLNRNSGGVTSSVSSIRIHPSFSSSTLNNDVSILKLSTPIASSSTISYGRLAASGSDPAAGSSATVAGWGATAQGSPSSPVALRKVTIPIVSRATCRAQYGTSAITTNMFCAGLEEGGKDSCQGDSGGPIVDTSNTVIGIVSWGEGCAQPNFSGVYARVGTLRSYIDGQL
Relative Activity (%) [2]: 0% | Relative Activity (%) [3]: 21% | fibrinolytic activity (in words) [4]: strong fibrinolytic activity | protease activity by the casein method [5]: 634 U/mg | Relative Activity (%) [6]: 100% | safety in acute toxicity test [7]: demonstrated the safety | Relative Activity (%) [8]: 0% | degrading activity on synthetic substrate (in words) [9]: has degrading activity | Relative Activity (%) ([9]; H-D-Ile-Pro-Arg-pNA taken as 100): 2.8% | Relative Activity (%) [10]: 0%

B3: Streptomyces subtilisin inhibitor (protein)
chain: DAPSALYAPSALVLTVGKGVSATTAAPERAVTLTCAPGPSGTHPAAGSACADLAAVGGDLNALTRGEDVMCPMVYDPVLLTVDGVWQGKRVSYERVFSNECEMNAHGSSVFAF
Relative Activity (%) [1]: 100%
